Data as given in article PMC8263732, “M1BP cooperates with CP190 to activate transcription at TAD borders and promote chromatin insulator activity” (Nature Communications, 2021).

What was measured:
Assay in all cases: co-IP; 500 ug nuclear extract of 0-24 h Drosophila embryos incubated overnight at 4 C with antiserum (anti-Su(Hw), anti-CP190, anti-Mod(mdg4)67.2 or anti-M1BP; normal serum as control) cross-linked to Protein A or G Sepharose; washed twice with HBSMT and once with HBSM; western blotting; efficiency as percent of total input protein
Conditions in all cases: partners not purified
[1] = target: T1, Motif 1 Binding Protein (M1BP) (Drosophila (endogenous in 0-24 h Oregon …, UniProt Q9VHM3 1-418))
T1 construct: endogenous protein in embryonic nuclear extract; source: endogenous, nuclear extract of 0-24 h Drosophila embryos
T1 sequence (looked up): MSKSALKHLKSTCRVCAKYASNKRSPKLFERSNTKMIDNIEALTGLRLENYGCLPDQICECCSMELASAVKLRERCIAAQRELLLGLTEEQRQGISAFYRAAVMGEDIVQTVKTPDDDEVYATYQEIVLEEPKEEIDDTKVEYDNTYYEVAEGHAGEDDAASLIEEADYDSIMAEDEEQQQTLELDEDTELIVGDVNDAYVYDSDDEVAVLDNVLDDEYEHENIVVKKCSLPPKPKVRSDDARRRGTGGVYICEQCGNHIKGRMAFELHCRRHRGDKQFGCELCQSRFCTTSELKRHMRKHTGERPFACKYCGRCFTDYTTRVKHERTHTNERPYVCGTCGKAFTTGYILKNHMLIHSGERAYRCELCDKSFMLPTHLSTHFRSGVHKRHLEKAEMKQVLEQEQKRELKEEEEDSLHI

[2] = target: T2, Centrosomal protein 190 (CP190) (Drosophila (endogenous in 0-24 h Oregon …, UniProt Q24478 1-1096))
T2 construct: Centrosomal protein 190 (CP190), universal insulator protein of Drosophila; endogenous protein in embryonic nuclear extract; source: endogenous, nuclear extract of 0-24 h Drosophila embryos
T2 sequence (looked up): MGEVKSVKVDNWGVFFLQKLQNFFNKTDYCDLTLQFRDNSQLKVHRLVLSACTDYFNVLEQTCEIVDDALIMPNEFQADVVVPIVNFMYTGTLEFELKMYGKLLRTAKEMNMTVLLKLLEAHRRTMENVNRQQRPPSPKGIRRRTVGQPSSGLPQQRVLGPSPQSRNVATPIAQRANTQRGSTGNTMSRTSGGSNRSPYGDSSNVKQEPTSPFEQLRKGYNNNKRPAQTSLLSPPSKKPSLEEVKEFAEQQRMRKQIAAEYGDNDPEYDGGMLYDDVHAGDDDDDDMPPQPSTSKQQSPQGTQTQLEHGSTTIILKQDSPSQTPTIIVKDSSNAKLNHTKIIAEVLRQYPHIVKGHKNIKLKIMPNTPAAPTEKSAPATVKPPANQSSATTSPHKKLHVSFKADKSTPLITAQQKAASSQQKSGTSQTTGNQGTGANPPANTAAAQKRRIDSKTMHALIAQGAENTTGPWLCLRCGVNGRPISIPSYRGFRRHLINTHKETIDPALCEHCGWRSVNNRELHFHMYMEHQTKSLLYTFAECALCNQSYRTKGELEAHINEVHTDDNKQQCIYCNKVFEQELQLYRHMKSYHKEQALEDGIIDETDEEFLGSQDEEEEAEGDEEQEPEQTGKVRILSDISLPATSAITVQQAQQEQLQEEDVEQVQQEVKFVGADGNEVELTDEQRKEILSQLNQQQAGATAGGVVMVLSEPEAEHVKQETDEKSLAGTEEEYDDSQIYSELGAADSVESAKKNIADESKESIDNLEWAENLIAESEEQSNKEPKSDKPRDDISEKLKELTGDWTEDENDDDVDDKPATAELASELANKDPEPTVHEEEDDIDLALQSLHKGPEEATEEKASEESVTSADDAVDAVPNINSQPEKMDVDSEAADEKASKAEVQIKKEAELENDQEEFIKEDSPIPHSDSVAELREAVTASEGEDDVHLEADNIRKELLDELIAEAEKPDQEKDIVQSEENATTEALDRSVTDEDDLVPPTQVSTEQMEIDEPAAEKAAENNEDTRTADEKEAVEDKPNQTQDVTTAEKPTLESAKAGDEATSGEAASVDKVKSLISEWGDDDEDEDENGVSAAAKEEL

[3] = target: T3, Modifier of mdg4 [Mod(mdg4)] 67.2 kDa isoform [Mod(mdg4)67.2] (Drosophila (endogenous in 0-24 h Oregon …, UniProt Q86B87 1-610))
T3 construct: Modifier of mdg4, the 67.2 kDa isoform, Drosophila; The gene has many isoforms; the 67.2 kDa isoform is meant; to be checked; source: endogenous, nuclear extract of 0-24 h Drosophila embryos
T3 sequence (looked up): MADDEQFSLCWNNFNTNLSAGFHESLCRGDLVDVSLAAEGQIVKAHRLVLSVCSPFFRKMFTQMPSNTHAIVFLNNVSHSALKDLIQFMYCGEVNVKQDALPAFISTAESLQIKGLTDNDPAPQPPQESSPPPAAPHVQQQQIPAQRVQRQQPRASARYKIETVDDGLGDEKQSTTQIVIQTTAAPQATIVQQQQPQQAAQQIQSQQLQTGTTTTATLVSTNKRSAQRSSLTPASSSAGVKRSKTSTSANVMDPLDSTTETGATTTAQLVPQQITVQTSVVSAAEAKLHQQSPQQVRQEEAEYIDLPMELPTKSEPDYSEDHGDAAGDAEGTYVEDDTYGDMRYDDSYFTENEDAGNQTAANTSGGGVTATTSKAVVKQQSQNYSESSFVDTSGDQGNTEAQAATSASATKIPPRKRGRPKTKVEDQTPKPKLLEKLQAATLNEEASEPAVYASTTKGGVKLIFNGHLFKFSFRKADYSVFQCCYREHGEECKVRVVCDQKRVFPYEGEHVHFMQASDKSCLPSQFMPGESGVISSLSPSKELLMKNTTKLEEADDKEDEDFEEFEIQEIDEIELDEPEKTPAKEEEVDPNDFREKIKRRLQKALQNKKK

percent of total protein immunoprecipitated with anti-M1BP [1]: 2.6%
percent of total protein immunoprecipitated with anti-CP190 [2]: 7%
percent of total protein immunoprecipitated with anti-Mod(mdg4)67.2 [3]: 8.5%
B1: Suppressor of Hairy wing [Su(Hw)] (natural protein, UniProt P08970 1-941, looked up)
chain: MSASKEGKEKKGKLLGVENISPPKDKRPATRMKLLNDVGAGEDSEASTTTTTSRTPSNKQEKRGSVAGSRIKILNEEILGTPKTEKRGATKSTAPAASTVKILNEKKTPSATVTAVETTKIKTSPSKRKKMEHYVLQAVKSENTKADTTVTVVTEEDDTIDFILADDEEVVPGRIENNNGQEIVVTEDDEDLGEDGDEDGEDSSGKGNSSQTKIKEIVEHVCGKCYKTFRRVQSLKKHLEFCRYDSGYHLRKADMLKNLEKIEKDAVVMEKKDICFCCSESYDTFHLGHINCPDCPKSFKTQTSYERHIFITHSEFSDFPCSICNANLRSEALLALHEEQHKSRGKPYACKICGKDFTRSYHLKRHQKYSSCSSNETDTMSCKVCDRVFYRLDNLRSHLKQHLGTQVVKKPEYMCHTCKNCFYSLSTLNIHIRTHTGEKPFDCDLCDKKFSALVALKKHRRYHTGEKPYSCTVCNQAFAVKEVLNRHMKRHTGERPHKCDECGKSFIQATQLRTHSKTHIRPFPCEQCDEKFKTEKQLERHVKTHSRTKRPVFSCAECKRNFRTPALLKEHMDEGKHSPKQQRSSMRSAVKIMERTDCAICDKNFDSSDTLRRHIRTVHECDPDDIFGVEPHPSKRAKKDIESEEVVPVALNTSAGSLISSQTDGNGVVVREFLVDEGDGAAQTITLENETYTILPLDGAIEGEQLTDEAGVKPEAKKEEAQVSPVVKKEQRKSLAASLAAAIADNLEESCSEDDFSGEILTEEDIKLKENVGKLIDMLVDPPILKKYGWPNAPEETVLCKVIENCGHDLTKGGENYAELDYGSRMREYCKLLFTVVIHNDSIKSLLNNFPIDDVIEYVLGDEDQDEGGLDKDNESHSGDEEAVSVTGETKTNEIREKPEKKEVSAKSEKKEIVGKAVDKDNSEEVVRENKKKPVGEQEKA
notes: endogenous protein in embryonic nuclear extract; source: endogenous, nuclear extract of 0-24 h Drosophila embryos
